Experimental data from article PMC8565321.

Target: BLM (UniProt P54132)
Test: co-IP and western blot
Conditions: reference: wild type USP37; sites S114

USP37 (from UniProt Q86T82) S114A
binding against the reference: weaker
